Numbering of substitutions follows the chain as printed. Names may count otherwise.
Tests used:
Assay type in all cases: cell-based
[1] = system: E. coli K12 ΔacrAB; assay: Survival assay on agar plate in olefin saturated atmosphere, strains producing AcrAB or AcrB variants
Method: (§1) FIG. 2: impact of AcrAB production on growth, in presence of styrene 1-hexene, 1-octene and 1-nonene on cell growth. A: Different concentrations of styrene were added to an OD600=0.2 culture of E. coli K12 ΔacrAB containing the pABc (white) or the control plasmid p0c (black). OD density was monitored after 2 hours of growth at 37° C. The bars represent standard deviation between duplicates. B: A survival test in presence of 1-hexene, 1-octene, or 1-nonene saturated atmosphere was performed. Six different dilutions of cultures (10 cells to 10^7 cells, left to right on the figure) were spotted in triplicate on an agar plates. Plates were then exposed to the aforementioned chemicals.
FIG. 4: Impact of beneficial mutations on AcrB on tolerance to 1-hexene, A: Survival test of E. coli strain producing either the AcrB wild type or variants in a 1-hexene saturated atmosphere was performed. Two dilutions of cultures (Dilution 1: 10^5 cells and Dilution 2: 10^4 cells) were spotted in triplicate on an agar plate. B: Localization of the 6 beneficial mutations represented on the structure of a single monomer of AcrB or C: on the structure of the AcrB trimer.
FIG. 6: Impact of beneficial mutations on AcrB on tolerance to 1-hexene. A: Survival test of E. coli strain producing either the AcrB Wild type or variants with 1, 2 or several beneficial mutations, in an 1-hexene saturated atmosphere was performed. Two dilutions of cultures (Dilution 2: 10^4 cells and Dilution 3: 10^3 cells) were spotted in triplicate on an agar plate. B: Soluble fraction of total proteins from a culture of strains producing either the wild type, either the variant F617L, either the variant 6 (A279T, Q584R, F617L) were analyzed by western blot using anti-His antibody.
For agar plate based assays, cells were first streaked overnight and few colonies were used to inoculate a preculture of 6 mL of LB-Cm with glucose (2 g/L) and arabinose (5 mM). At OD60=1 at 37° C., the cultures were used to prepare a dilution series. Dilution 0 (D0) corresponds to the OD600, =1, and contains ˜10^9 cells/mL. Dilution 1 (D1) is a 10-fold dilution of D0, dilution 2 (D2) a 10-fold dilution of D1 up to dilution 5 (D5), which contains ˜10^4 cells/mL. 10 μL of each dilution was spotted in triplicate on LB-agar plates (single well plates, Thermo Scientific, Waltham, Mass.) containing 30 mL of LB-agar, Cm (30 mg/L), glucose (2 g/L) and arabinose (5 mM). Small containers (microfuge tube lids) were placed on the open lid of the agar plate and filled with 400 to 600 μL of 1-hexene or 1-octene or with 75 μL of 1-nonene. The agar plates were then inverted over the lid, cells facing the olefin compound, sealed with parafilm, placed in the plastic bag (the original packaging for the petri dishes) and incubated for 2 days at room temperature. For 1-octene, a second condition, via overlaying 2 mL of compound on the top of the agar submerging the cells, was used. TolC overexpression impact was examined using the same method, but in this case, the LB media and the LB-agar were also supplemented with ampicillin (100 mg/L) and IPTG (100 μM). […]

[2] = system: E. coli K12 ΔacrAB; assay: Growth in liquid culture with 1-hexene, styrene or bile salts, strains producing AcrAB or AcrB variants
Method: as §1
FIG. 5: Impact of beneficial AcrB mutations on growth, in presence of 1-hexene and styrene. Different concentrations of 1-hexene (A), styrene (B), or bile salts (C) were added to an OD600=0.2 culture of E. Coli K12 ΔacrAB containing either the AcrB wild type (pABc) or the AcrB variants. OD densities were monitored after 2 hours of culture at 37° C. The bars represent standard deviation between duplicates.
Cells were first inoculated in 6 mL LB-Cm with glucose (2 g/L) and arabinose (5 mM). […] After 2 hours at 37° C., OD600 was measured. […]

[3] = system: E. coli K12 wild type; assay: Survival test in 1-hexene saturated atmosphere on over-production of AcrA, AcrB and TolC; details: FIG. 3
Method: Six different dilutions of cultures (10 cells to 10^7 cells, left to right on the picture) were spotted in triplicate on an agar plate.
For agar plate based assays, cells were first streaked overnight and few colonies were used to inoculate a preculture of 6 mL of LB-Cm with glucose (2 g/L) and arabinose (5 mM). At OD60=1 at 37° C., the cultures were used to prepare a dilution series. Dilution 0 (D0) corresponds to the OD600, =1, and contains ˜10^9 cells/mL. Dilution 1 (D1) is a 10-fold dilution of D0, dilution 2 (D2) a 10-fold dilution of D1 up to dilution 5 (D5), which contains ˜10^4 cells/mL. 10 μL of each dilution was spotted in triplicate on LB-agar plates (single well plates, Thermo Scientific, Waltham, Mass.) containing 30 mL of LB-agar, Cm (30 mg/L), glucose (2 g/L) and arabinose (5 mM). […] The agar plates were then inverted over the lid, cells facing the olefin compound, sealed with parafilm, placed in the plastic bag (the original packaging for the petri dishes) and incubated for 2 days at room temperature. For 1-octene, a second condition, via overlaying 2 mL of compound on the top of the agar submerging the cells, was used. TolC overexpression impact was examined using the same method, but in this case, the LB media and the LB-agar were also supplemented with ampicillin (100 mg/L) and IPTG (100 μM).

[4] = system: E. coli DH1 ΔacrAB; assay: Survival test of heterologous efflux pump library in 1-hexene saturated atmosphere; details: FIG. 7
Method: FIG. 7: Impact of homologous pumps on growth in presence of 1-hexene. Survival test of E. coli DH1 ΔacrAB producing either the AcrAB wild type or AcrAB homologs in a 1-hexene saturated atmosphere was performed. One dilution of cultures (10^6 cells) was spotted on agar plate. […] From left to right and from top to bottom of the picture, are culture of strains producing the pumps A. vinelandii (YP_002797425), A. vinelandii (MexF), A. vinelandii (YP_002801502), P. putida (TtgB), P. putida (NP_745594), P. putida (MexF), P. putida (NP_743067), P. aeruginosa (MexB), P. aeruginosa (NP_250708), P. aeruginosa (MexF), P. aeruginosa (NP_253065), P. fluorescens (YP_258460), P. fluorescens (YP_260376), P. fluorescens (YP_258159), P. fluorescens (YP_258289), R. metallidurans (YP_586997), R. melallidurans (YP_583276), R. metallidurans (YP_583852), M. aqueolei (YP_960752), M. aqueolei (YP_957870), P. syringae (YP_276144), P. syringae (YP_275089), P. syringae (MdtB), P. syringae (YP_273025), P. syringae (YP_273463), P. syringae (YP_272632), G. metallireducens (YP_383777), G. metallireducens (YP_384620), G. metallireducens (YP_385464), G. metallireducens (YP_384608), G. metallireducens (YP_386066), B. pertussis (NP_880739), D. vulgaris (YP_009662), S. putrefaciens (YP_001181626), A. borkumensis (YP_692684), B. borkumensis (YP_694242), P. haloplanktis (AcrB), S. halifaxensis (YP_001672433), S. halifaxensis (YP_001673423), S. halifaxensis (YP_001674385), E. coli (AcrEF), E. coli (AcrAB), E. coli (AcrD).
An existing library of heterologous efflux pumps in E. coli (Dunlop et al. 2011) was used to test if another pump may provide better tolerance to 1-hexene than the native E. coli AcrAB-TolC system. Using the agar plate-based method, this strain library constructed in a DH1 ΔacrAB background was tested and the survival compared in presence of 1-hexene relative to the strain expressing an equivalent plasmid-borne copy of the native acrAB genes.
To test the heterologous efflux pump library, the same method was used. […]

B1: AcrA and AcrB: plasmid-borne wild type acrA and acrB in an operon under an arabinose inducible promoter (pABc) (protein, UniProt P0AE06 25-397; P31224 1-1049, looked up)
Multidrug efflux pump subunit … 1: CDDKQAQQGGQQMPAVGVVTVKTEPLQITTELPGRTSAYRIAEVRPQVSGIILKRNFKEGSDIEAGVSLYQIDPATYQATYDSAKGDLAKAQAAANIAQLTVNRYQKLLGTQYISKQEYDQALADAQQANAAVTAAKAAVETARINLAYTKVTSPISGRIGKSNVTEGALVQNGQATALATVQQLDPIYVDVTQSSNDFLRLKQELANGTLKQENGKAKVSLITSDGIKFPQDGTLEFSDVTVDQTTGSITLRAIFPNPDHTLLPGMFVRARLEEGLNPNAILVPQQGVTRTPRGDATVLVVGADDKVETRPIVASQAIGDKWLVTEGLKAGDRVVISGLQKVRPGVQVKAQEVTADNNQQAASGAQPEQSKS
Multidrug efflux pump subunit … 2: MPNFFIDRPIFAWVIAIIIMLAGGLAILKLPVAQYPTIAPPAVTISASYPGADAKTVQDTVTQVIEQNMNGIDNLMYMSSNSDSTGTVQITLTFESGTDADIAQVQVQNKLQLAMPLLPQEVQQQGVSVEKSSSSFLMVVGVINTDGTMTQEDISDYVAANMKDAISRTSGVGDVQLFGSQYAMRIWMNPNELNKFQLTPVDVITAIKAQNAQVAAGQLGGTPPVKGQQLNASIIAQTRLTSTEEFGKILLKVNQDGSRVLLRDVAKIELGGENYDIIAEFNGQPASGLGIKLATGANALDTAAAIRAELAKMEPFFPSGLKIVYPYDTTPFVKISIHEVVKTLVEAIILVFLVMYLFLQNFRATLIPTIAVPVVLLGTFAVLAAFGFSINTLTMFGMVLAIGLLVDDAIVVVENVERVMAEEGLPPKEATRKSMGQIQGALVGIAMVLSAVFVPMAFFGGSTGAIYRQFSITIVSAMALSVLVALILTPALCATMLKPIAKGDHGEGKKGFFGWFNRMFEKSTHHYTDSVGGILRSTGRYLVLYLIIVVGMAYLFVRLPSSFLPDEDQGVFMTMVQLPAGATQERTQKVLNEVTHYYLTKEKNNVESVFAVNGFGFAGRGQNTGIAFVSLKDWADRPGEENKVEAITMRATRAFSQIKDAMVFAFNLPAIVELGTATGFDFELIDQAGLGHEKLTQARNQLLAEAAKHPDMLTSVRPNGLEDTPQFKIDIDQEKAQALGVSINDINTTLGAAWGGSYVNDFIDRGRVKKVYVMSEAKYRMLPDDIGDWYVRAADGQMVPFSAFSSSRWEYGSPRLERYNGLPSMEILGQAAPGKSTGEAMELMEQLASKLPTGVGYDWTGMSYQERLSGNQAPSLYAISLIVVFLCLAALYESWSIPFSVMLVVPLGVIGALLAATFRGLTNDVYFQVGLLTTIGLSAKNAILIVEFAKDLMDKEGKGLIEATLDAVRMRLRPILMTSLAFILGVMPLVISTGAGSGAQNAVGTGVMGGMVTATVLAIFFVPVFFVVVRRRFSRKNEDIEHSHTVDHH
survival and growth in 1-hexene, 1-octene and 1-nonene ([1]; pump expression vs control plasmid, saturated atmosphere, FIG. 2B): strong advantage | survival in the presence of styrene compared to control plasmid ([2]; pABc vs p0c, styrene, FIG. 2A): enhanced survival | tolerance to 1-hexene on over-expression in the wild type strain [3]: greater than the wild type

B2: Q584R: E. coli AcrB (SEQ ID NO:1) variant with amino acid mutation Q584R (protein)
chain: B1 Multidrug efflux pump subunit … 2 with Q584R
modifications: E. coli
efficiency among the beneficial mutations ([1]; 1-hexene saturated atmosphere): more efficient | tolerance to 1-hexene relative to wild type AcrB sequence ([1]; single mutation AcrB variants, 1-hexene saturated atmosphere, FIG. 4A): improvement in tolerance | growth of the strain in presence of bile salts ([2]; bile salts, FIG. 5C): improved the growth

B3: Pseudoalteromonas haloplanktis TAC125: heterologous RND efflux pump, AcrB homolog from Pseudoalteromonas haloplanktis TAC125 (protein, listed as Pseudoalteromonas haloplanktis)
chain: MSRYFIDKPIFAWVLAIIVMLAGILAVKSLPIAQYPSIAPPAISITANYPGASAQTLEDSVTQVIEQKMKGLDGLLYMSSTSESNGSATLTLTFNADTDPDIAQVQVQNKLATATPLLPEEVQRQGVVVAKAARNFLLVLAFVSKDGSMTNIDIGDYVASNVQDIVSRVDGVGEAQLFGSQYAMRIWLDPAKLQNFKLTPNDIGAAITAQNAQVSAGQLGGMPAIAGQQLNATITAQSRLQTPEQFENILVKTNSDGSVVRLKDVARVELGGENYGVVARYNGDPAAGIGIKLASGANALDTAEGVKKALEDLKPFFPEGLDVAIPYDTTPFVSLSIEKVVHTLIEAVILVFVVMYLFLQNFRATLIPTIAVPVVLLGTFAILYTFGYSINTLTMFAMVLAIGLLVDDAIVVVENVERLMTEEKLSALDATRKSMDEIKGALVGIAMVLSAVFIPMAFFSGSTGVIYRQFSITIVSAMGLSVLVALILTPALCATLLKPSHVHDKTSFIGRFFSGFNRGFDKTNRGAQGIVGRMISQSKRYLLIYGVLVGGMVYVFSSLPTAFLPDEDQGILFNQVMLPAGSTIEQTLGVVEKVENHYLNDQAEAVGSIFTVTGFSFAGSGQNSAIGFVNLKHWDERQRDDLSVNAVAGKGMGYFSTIKEAFVFAFPPPAIVELGTANGFNMFLQDRVGLGHDELLNARNMLLGMASKSPVLAGVRPNGQEDMPELQLDIDLAKAEALGVTQTDINSTLSTAWGSRYVNDFIDRGRVKKVYMQGEADSRMVPEDLNKWYVRNNNGDMVPFAAFASSHWSYGSPRLERYNGFSAMEIQGSAAPGYSTGQAMDEMERLVKQLPNGIASEWSGISYQERSSGGQAPLLYGLSLLFVFLCLAALYESWSVPFAVMIIVPLGIFGAIMAALIGNLSNDIYLQVGLLTTIGLASKNAILIVEFAIHKMEEGLSLVDAAIAAVKLRLRPVLMTSLAFICGVVPLAIASSAGSGAQNALGISIIGGTLAASTLVVLFVPLFFVLVRKTFSSKSAVATKESE
tolerance to 1-hexene relative to the native E. coli acrAB-expressing strain [4]: equivalent tolerance
